Experiments:
[1] = test system: negative control hybrid maize; experiment: PPO herbicide pre-emergence injury, negative control maize; assay type: in vivo; conditions: 20 days after treatment
Experimental: (§1) Transgenic F1 hybrid maize expressing APG6 operably linked to PPO H_N10 was assessed for tolerance to different seven different PPO herbicides: S-3100, Fomesafen, Acifluorfen, Lactofen, Flumioxazin, Sulfentrazone, and Saflufenacil. Pooled seed representing 5 unique events was planted in pots in a greenhouse along with hybrid maize seed as a negative control.
(§2) To test for pre-emergence herbicide tolerance, PPO herbicides were applied individually at one of two rates with six reps per treatment as follows: S-3100 (80 or 160 g ai/ha), fomesafen (Reflex®, 840 or 1680 g ai/ha), flumioxazin (Valor® SX, 210 or 420 g ai/ha), sulfentrazone (Spartan® 4L, 840 or 1680 g ai/ha), and saflufenacil (Sharpen®, 200 or 400 g ai/ha). Plants were rated for percentage of crop injury at 20 days after treatment, and maize seed was included as a negative control. […] Negative control maize plants had injury ratings ranging from 17.5% to 94.2%, with the exception of Saflufenacil, which is expected since this herbicide is marketed for used in conventional maize plants. Data are presented in Table 15 with standard error indicated as +/−.

[2] = test system: transgenic F1 hybrid maize expressing APG6 operably linked to PPO H_N10; experiment: PPO herbicide pre-emergence injury, maize with APG6-PPO H_N10; assay type: in vivo; conditions: 20 days after treatment
Experimental: as §1, §2

[3] = test system: transgenic Brassica napus plants; experiment: Dicamba tolerance in R0 Brassica napus, greenhouse; conditions: R0 plants with one copy with vector backbone or two copies, tolerant = injury 20% or less, 21 days
Experimental: Brassica napus variety 65037 Restorer line was used for Agrobacterium-mediated transformation and R0 plants were grown in the greenhouse.
Dicamba tolerance was assessed using R0 plants with one copy of transgene with vector backbone or two copies of transgene. Dicamba tolerance was designated as dicamba injury of 20% or less under greenhouse conditions.
Dicamba tolerance was assessed on R0 plants with a one copy of the transgene. Plants were sprayed in the greenhouse with dicamba (Clarity) at 1 lb ae/acre (2× rate), and dicamba tolerance was determined 14 to 21 days later.

[4] = test system: transgenic Brassica napus plants; experiment: Dicamba tolerance in R1 Brassica napus, greenhouse, three sprays; assay type: in vivo; conditions: dicamba 2 lb ae/acre at planting, 1 lb ae/acre at V3, 1 lb ae/acre at first flower
Text: Plants were sprayed with 2 lb ae/acre dicamba (4×) on the day of planting, followed by 1 lb ae/acre dicamba (2×) dicamba at V3 stage, and 1 lb ae/acre dicamba (2×) dicamba at first flower (defined as >90% of plants having bolted and about 25% having at least one open flower). Injury ratings were taken seven days after each spray and expressed as percent injury compared to sprayed controls. For plants containing APG6+DMO, there were 9 progeny total from 2 events with dicamba injury ratings of ≤20% at each of the three rating periods. For plants containing RbcS+DMO, there were 77 plants across 16 events with dicamba tolerance of less than 20% at each of the three rating periods.

[5] = test system: transgenic F1 hybrid maize plants; experiment: F1 hybrid maize field trial of dicamba injury and yield; assay type: in vivo
Experimental: Dicamba tolerance was evaluated in a field trial for the transgenic F1 hybrid plants. The field trial included four treatments at two locations with two replications each. The four treatments were: (1) dicamba (Clarity®) applied at 2 lbs ae/acre (4×) at V2 followed by V4 followed by V8; (2) dicamba applied at 4 lbs at/acre (8×) at V2 followed by V4 followed by V8; (3) dicamba applied at 8 lbs at/acre (16×) at V2 followed by V4 followed by V8; and (4) dicamba applied at 16 lbs at/acre (32×) at V2 followed by V4 followed by V8. Crop injury was rated ten days after treatment and measured as crop injury percent per V-stage (CIPV2, CIPV4, or CIPV8). At the end of the season, grain was harvested and yield measured as bushels/acre. For both CIPV ratings and yield the least significant difference (LSD) at probability of 5% (p=0.05) was calculated.

[6] = test system: transgenic R1 soybean plants; experiment: PPO herbicide testing of R1 soybean (S-3100, greenhouse); conditions: for Injury V4 stage / Injury R1 stage: ten days after treatment
Experimental: Regenerated R0 transgenic plantlets were grown in the greenhouse, selfed, and R1 seed was collected. Transgenic R1 plants were sprayed in the greenhouse with one of three herbicide treatments applied at V4 and R1: (1) 5 grams ai/ha S-3100, (2) 10 grams ai/ha S-3100, or (3) 30 grams ai/ha S-3100. Crop injury ratings were assessed at ten days after treatment.

[7] = test system: R0 transgenic cotton plants; experiment: S-3100 tolerance of R0 transgenic cotton, greenhouse; conditions: 20 g ai/ha S-3100 at V2, three days after treatment
Experimental: Regenerated R0 transgenic plantlets were grown in the greenhouse, and leaf samples taken from the resulting R0 plants were analyzed by PCR to identify plants containing a single copy of an event. Transgenic single-copy R0 plants, each representing a unique event, were sprayed in the greenhouse with the herbicide treatment 20 g ai/ha of S-3100 applied at V2 stage. Additionally, transgenic multi-copy (≥2 copies/plant) were sprayed in the greenhouse with the herbicide treatment 20 g ai/ha of S-3100 applied at V2 stage. Injury ratings were taken at three days after treatment.

[8] = test system: R1 transgenic soybean plants; experiment: R1 soybean greenhouse dicamba injury; conditions: dicamba 1120 g ai/ha at V4; rated 10 days after treatment; DMO SEQ ID NO:18
Text: Transgenic soybean plants were generated with two DNA constructs that were identical except for the APG6 CTP. The first DNA construct had APG6 (SEQ ID NO:1) operably linked to DMO (SEQ ID NO:18). The second DNA construct had the optimized APG6 (SEQ ID NO:2) operably linked to DMO (SEQ ID NO:18). Each DNA construct was used to transform A3555 soybean by Agrobacterium mediated transformation methods. Following transformation, R0 transgenic plants containing a single copy of the transgene were identified by PCR assay. Single-copy R0 plants were grown in greenhouse, and R1 seed was harvested. Ten R1 seeds per event for 4 events generated using each of the two DNA constructs and AG3555 seed was planted for evaluation of crop tolerance to post-emergence dicamba treatment under standard greenhouse growth conditions. Dicamba (Clarity) was applied at the V4 stage at 1120 g ai/ha. Crop injury ratings were taken 10 days after the treatment.

[9] = test system: R1 transgenic cotton plants; experiment: R1 cotton greenhouse dicamba injury; conditions: dicamba 1120 g ai/ha at V4; rated 9 days after treatment; DMO SEQ ID NO:18
Text: Ten R1 seeds per event from 10 events for each construct and seed from DP393 cotton was planted to evaluate crop tolerance to post-emergence application of dicamba. Dicamba (Clarity) was applied at the V4 stage at 1120 g ai/ha. Crop injury percent ratings were taken 9 days after the treatment.

[10] = dicamba 2 lbs ae/acre (4×) at V2 fb V4 fb V8
[11] = dicamba 4 lbs (8×) at V2 fb V4 fb V8
[12] = dicamba 8 lbs (16×) at V2 fb V4 fb V8
[13] = dicamba 16 lbs (32×) at V2 fb V4 fb V8

C#CCN1C(=O)COc2cc(F)c(N3C(=O)C4=C(CCCC4)C3=O)cc21 [Flumioxazin, flumioxazin]
% Injury negative control ([1]; 210 g ai/ha): 30% +/− 6.32
% Injury negative control ([1]; 420 g ai/ha): 60.8% +/− 6.38
% Injury PPO H_N10 ([2]; 210 g ai/ha): 1.7% +/− 1.05
% Injury PPO H_N10 ([2]; 420 g ai/ha): 2.5% +/− 1.71

CCOC(=O)COc1ncccc1Oc1cc(-n2c(=O)cc(C(F)(F)F)n(C)c2=O)c(F)cc1Cl [S-3100, ethyl [3-2-chloro-4-fluoro-5-(1-methyl-6-trifluoromethyl-2,4-dioxo-1,2,3,4-tetrahydropyrimidin-3-yl)phenoxy]-2-pyridyloxyl acetate]
% Injury negative control ([1]; 80 g ai/ha, +/− standard error): 19.2% +/− 2.39
% Injury negative control ([1]; 160 g ai/ha): 20.8% +/− 8.31
% Injury PPO H_N10 ([2]; 80 g ai/ha, +/− standard error): 3.3% +/− 1.67
% Injury PPO H_N10 ([2]; 160 g ai/ha): 4.2% +/− 1.54

CS(=O)(=O)NC(=O)c1cc(Oc2ccc(C(F)(F)F)cc2Cl)ccc1[N+](=O)[O-] [Fomesafen, fomesafen]
% Injury negative control ([1]; 840 g ai/ha): 75.8% +/− 5.83
% Injury negative control ([1]; 1680 g ai/ha): 94.2% +/− 1.54
% Injury PPO H_N10 ([2]; 840 g ai/ha): 4.2% +/− 1.54
% Injury PPO H_N10 ([2]; 1680 g ai/ha): 5.8% +/− 0.83

Cc1nn(-c2cc(NS(C)(=O)=O)c(Cl)cc2Cl)c(=O)n1C(F)F [Sulfentrazone, sulfentrazone]
% Injury negative control ([1]; 840 g ai/ha): 17.5% +/− 11.6
% Injury negative control ([1]; 1680 g ai/ha): 20% +/− 11.11
% Injury PPO H_N10 ([2]; 840 g ai/ha): 0% +/− 0
% Injury PPO H_N10 ([2]; 1680 g ai/ha): 0% +/− 0

CC(C)N(C)S(=O)(=O)NC(=O)c1cc(-n2c(=O)cc(C(F)(F)F)n(C)c2=O)c(F)cc1Cl [Saflufenacil, saflufenacil]
% Injury negative control ([1]; 200 g ai/ha): 0% +/− 0
% Injury negative control ([1]; 400 g ai/ha): 0.8% +/− 0.83
% Injury PPO H_N10 ([2]; 200 g ai/ha): 0% +/− 0
% Injury PPO H_N10 ([2]; 400 g ai/ha): 0.8% +/− 0.83

RbcS (SEQ ID NO: 5): Ps.RbcS-3C chloroplast transit peptide, SEQ ID NO:5 (MASMISSSAVTTVSRASRGQSAAMAPFGGLKSMTGFPVRKVNTDITSITSNGGRVKC; listed as Pisum sativum) [reference compound]
2X Tolerant events ([3]; dicamba 1 lb ae/acre): 8/9
4X Tolerant events ([3]; dicamba 2 lb ae/acre): 7/7

B1: APG6-DMO: APG6 CTP operably linked to dicamba monooxygenase (SEQ ID NO:20 in Brassica, SEQ ID NO:18 in maize) (protein)
chain: MLTFVRNAWYVAALPEELSEKPLGRTILDTPLALYRQPDGVVAALLDICPHRFAPLSDGILVNGHLQCPYHGLEFDGGGQCVHNPHGNGARPASLNVRSFPVVERDALIWIWPGDPALADPGAIPDFGCRVDPAYRTVGGYGHVDCNYKLLVDNLMDLGHAQYVHRANAQTDAFDRLEREVIVGDGEIQALMKIPGGTPSVLMAKFLRGANTPVDAWNDIRWNKVSAMLNFIAVAPEGTPKEQSIHSRGTHILTPETEASCHYFFGSSRNFGIDDPEMDGVLRSWQAQALVKEDKVVVEAIERRRAYVEANGIRPAMLSCDEAAVRVSREIEKLEQLEAA
events giving plants with dicamba injury of 20% or less at each of three rating periods [4]: 2
plants (progeny) with dicamba injury of 20% or less at each of three rating periods ([4]; rated 7 days after each spray): 9
CIPV4 (crop injury percent) [5, 10]: 2%
CIPV8 (crop injury percent) [5, 10]: 3%
Yield [5, 10]: 231.99 bu/ac
CIPV2 (crop injury percent) ([5]; dicamba 2 lbs ae/acre (4×) at V2 fb V4 fb V8, rated ten days after treatment): 0.75%
CIPV2 (crop injury percent) [5, 11]: 1.5%
CIPV4 (crop injury percent) [5, 11]: 2%
CIPV8 (crop injury percent) [5, 11]: 7.5%
Yield [5, 11]: 230.44 bu/ac
CIPV2 (crop injury percent) [5, 12]: 1.5%
CIPV4 (crop injury percent) [5, 12]: 4%
CIPV8 (crop injury percent) [5, 12]: 11.25%
Yield [5, 12]: 242.37 bu/ac
CIPV2 (crop injury percent) [5, 13]: 2%
CIPV4 (crop injury percent) [5, 13]: 5.75%
CIPV8 (crop injury percent) [5, 13]: 17.5%
Yield [5, 13]: 212.34 bu/ac

B2: 12G088600TP + H_N10: 12G088600TP CTP operably linked to PPO H_N10, construct for soybean (protein, listed as Gossypium raimondii, listed as Escherichia coli)
chain: MLNIAPSCVLASGISKPVTKMASTENKDDHSSAKRMKTLILFSTRDGQTREIASYLASELKELGIQADVANVHRIEEPQWENYDRVVIGASIRYGHYHSAFQEFVKKHATRLNSMPSAFYSVNLVARKPEKRTPQTNSYARKFLMNSQWRPDRCAVIAGALRYPRYRWYDRFMIKLIMKMSGGETDTRKEVVYTDWEQVANFAREIAHLTDKPTLK
survival for rating at the R1 stage ([6]; S-3100 5, 10 and 30 g ai/ha applied at V4): did not survive
Injury V4 stage ([6]; S-3100 5 g/ha): 82.7%
Injury V4 stage ([6]; S-3100 10 g/ha): 92.7%
Injury V4 stage ([6]; S-3100 30 g/ha): 98.2%

B3: APG6 + H_N10: APG6 CTP operably linked to PPO H_N10, construct for soybean and cotton (protein, listed as Arabidopsis thalinana, listed as Escherichia coli)
chain: MATATTTATAAFSGVVSVGTETRRIYSFSHLQPSAAFPAKPSSFKSLKLKQSARLTRRLDHRPFVVRCMKTLILFSTRDGQTREIASYLASELKELGIQADVANVHRIEEPQWENYDRVVIGASIRYGHYHSAFQEFVKKHATRLNSMPSAFYSVNLVARKPEKRTPQTNSYARKFLMNSQWRPDRCAVIAGALRYPRYRWYDRFMIKLIMKMSGGETDTRKEVVYTDWEQVANFAREIAHLTDKPTLK
Injury R1 stage ([6]; S-3100 5 g/ha): 3%
Injury V4 stage ([6]; S-3100 5 g/ha): 4.2%
Injury R1 stage ([6]; S-3100 10 g/ha): 6.5%
Injury V4 stage ([6]; S-3100 10 g/ha): 7.8%
Injury R1 stage ([6]; S-3100 30 g/ha): 15.7%
Injury V4 stage ([6]; S-3100 30 g/ha): 9.4%
average injury ([7]; 14 multi-copy R0 cotton plants): 10.4%
average injury ([7]; 21 single-copy R0 cotton plants): 26.7%

B4: Optimized APG6: amino-terminal optimized variant of the APG6 CTP, SEQ ID NO:2 (protein)
chain: MASSTTTATAAFSGVVSVGTETRRIYSFSHLQPSAAFPAKPSSFKSLKLKQSARLTRRLDHRPFVVRC
Dicamba Injury, V4 stage [8]: 2.7%
dicamba % Injury, V4 stage [9]: 2.2%
